This assay addresses PSI^PsaJF, phage-mimetic photosystem I complex with the fused PsaJF subunit (one monomer of the trimer) (Synechocystis sp. PCC 6803) (UniProt P29254). In words: crystal structure; PSI^PsaJF trimer purified from Synechocystis membranes, 3.8 Å, space group P21, three monomers in the asymmetric unit.

As a reminder, the stoichiometry N is the number of molecules, sites or subunits per partner or assembly. For the substance “PSI^PsaJF, phage-mimetic photosystem I complex with the fused PsaJF subunit (one monomer of the trimer) (from UniProt P29254 1-751; P29255 1-731; P32422 1-81; P19569 1-141; P12975 1-74; Q55329 1-40; P29256 84-165; Q55330 1-40; P72712 1-86; P37277 1-157; P72986 1-31)”, the stoichiometry N came to 3.
